# Laboratory results from the RNAGym collection of RNA variant scans (doi:10.1073/pnas.2313332121).
# B1: TPR t1 (parent)
# chain: GACCAAUCUGCCCUCAGAGCUCGAGAACAUCUUCGGAUGCAGAGGAGGCAGGCUUCGGUGGCGCGAUAGCGCCAACGUCCUCAACCUCCAAUGCAUCCCACCACAUGAUGAUGCCUGAAGAGCCUUGGUUUUUUG
# Variants of: B1
# Experiment: polymerase ribozyme fitness, log enrichment relative to wild type (log ratio); higher = more active; in vitro selection for triplet polymerase activity
# Outline: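 Fitness is a logarithmic measure of how a genotype enriched relative to the wild type, with replicate averages weighted by inverse variance. The logarithm uses base 2, and enrichment came from Illumina sequencing of input and output libraries. Those libraries were PCR-built, transcribed mutants of each subunit of a heterodimeric triplet polymerase ribozyme, passed through one triplicate in vitro selection round that included frozen incubation at −7 °C, gel excision of extended constructs and streptavidin-bead capture. Genotypes were kept only if they had ≥10 input reads and ≥1 read per output.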
row,Variant,polymerase ribozyme fitness (log ratio)
1,GACCAAUCUGCCCUCAGAGCUCGAGAACAUCUUCGGAUGCAGAGGAGGCAGGCGUCGGUGGCGCGAUAGCGCCAACGUCCUCAACCUCCAAUGCGUCCCACCACAUGAUGAUGCCUGAAGAGCCUUGGUAUUUUG [U54G A95G U130A],-1.11
2,GACCAAUCUGCCCUCAGAGCUCGAGAACAUCUUCGGAUGCAGAGGAGGCAGGCUACGGUGGCACGAUAGCGCCAACGUCCUCAAGCUGCAAUGCAUCCCACCACAUGAUGAUGCCUGAAGAGCCUUGGUUUUUUG [U55A G63A C85G C88G],-2.1
3,GACCAAUCUGCCCUCAGAGCUCGAGAACAUCUUCGGAUGCAGAGGAGGCAGGCGUCGGUGGCGCGAUAGCGCCAACGUCCUCAACCUCCAAUGCAUCCCACCACAUGAUGAUGCCAGAAGAGCCUUGGUUUUUUG [U54G U116A],-3.36
4,GACCAAUCUGCCCUCAGAGCUCGAGAACAUCUUCGGAUGCAGAGGAGGCAGGCGUCGGUGGCGCGAUAGCGCCAACGUCCUCAACCUCCAAUGCAUCCCACCACAUGAGGAUGCCUGAAGAGCCUUGGUUUUUUG [U54G U109G],-4.29
5,GACCAAUCUGCCCUCAGAGCUCGAGAACAUCUUCGGAUGCAGAGGAGGCAGGCUCUGGUGGCGCGAUAGCGCCAACGUCCUCAACCUCCAAUGCAUCCCACCACAUGAUGAUGCCUGAAGAGCCUUGGUUUUUUG [U55C C56U],0.598
6,GACCAAUCUGCCCUCAGAGCUCGAGAACAUCUUCGGAUGCAGAGGAGGCAGGCUACAGUGGCGCGAUAGCCCCAACGUCCUCAACCUCCAAUGCAUCCCACCACAUGAUGAUACCUGAAGAGCCUUGGUUUUUUG [U55A G57A G71C G113A],-2.54
7,GACCAAUCUGCCCUCAGAGCUCGAGAACAUCUUCGGAUGCAGAGGAGGCAGGCGUGGGUGGCGCGAUAGCGCCAACGUCGUCAGCCUCCAAUGCAUCCCACCACAUGAUGAUGCCUUAAGAGCCUUGGUUUUUUG [U54G C56G C80G A84G G117U],-6.69
8,GACCAAUCUGCCCUCAGAGCUCGAGAACAUCUUCGGAUGCAGAGGAGGCAGGCGUCGGUGGCUCGAUAGCGCCAACGUCCUCAACCUUAAAUGCAUCCCACCUCAUGAUGAUGCCUGAAGAUCAUUGGUUUUUUG [U54G G63U C88U C89A A103U G122U C124A],-7.39
9,GACCAAUCUGCCCUCAGAGCUCGAGAACAUCUUCGGAUGCAGAGGAGGCAGGCUACCGUGGCGCGAUAGCGCCAACGCCCUCAACCUCCAAUGCAUCCCACCGCAUGAUGAUGCCUGAAGAGCAAUGGUUUUUUG [U55A G57C U78C A103G C124A U125A],-4.66
10,GACCAAUCUGCCCUCAGAGCUCGAGAACAUCUUCGGAUGCAGAGGAGGCAGGCGUCGGUGGCGCGAUAGCGCCAACGUCCUCAACCUCCAAUGCAUCCCACCAGAUGAUGAUGCCUGAAGAGCCUUGGUUUUUUG [U54G C104G],-7.42
11,GACCAAUCUGCCCUCAGAGCUCGAGAACAUCUUCGGAUGCAGAGGAGGCAGGCUACGGUGGCGCGAUAGCGCCAACGUCCUCAACCUCCAAUGCAUCCCAUCACAUGAUGAUGCCUGAAGUGCCUUGGUUUUUUG [U55A C101U A121U],1.89
12,GACCAAUCUGCCCUCAGAGCUCGAGAACAUCUUCGGAUGCAGAGGAGGCAGGCUACGGUGGCGCGAUAGCGCCAACGUCCUCACCCUCCAAUGCAUCCCACCACAUGAUGAUGCCUGAAGAGCCUUGGUUUUUUG [U55A A84C],0.0901
13,GACCAAUCUGCCCUCAGAGCUCGAGAACAUCUUCGGAUGCAGAGGAGGCAGGCUCCGGUGGCGCGAUAGCGCCAACGUCCUCAACCUCCAAUGCAUCCCACCACAUGAUGAUGCCUGAAGGGCCUUGGUUUUUUG [U55C A121G],1.84
14,GACCAAUCUGCCCUCAGAGCUCGAGAACAUCUUCGGAUGCAGAGGAGGCAGGCUCCGGUGGCGCGAUAGCGCCAACGUCCUCAACCUCCAAUGCAUCCCACCACGUGAUGAUGCCUGAAGAGGCUUGGUUUUUUG [U55C A105G C123G],-0.655
15,GACCAAUCUGCCCUCAGAGCUCGAGAACAUCUUCGGAUGCAGAGGAGGCAGGCUACGGUGGCGCGAUAGCGCCAACGUCCUCAACCUCCAAUACAUCCCACCACAUGAUGAUGCCUGAAGUGCCUUGGUUUUUUG [U55A G93A A121U],1.57
16,GACCAAUCUGCCCUCAGAGCUCGAGAACAUCUUCGGAUGCAGAGGAGGCAGGCGUCGGUGGCGCGAUAGCGCCAACGUCCUCAACUUCCAAUGCAUCCCACCACAUGAUGAUGCCUUAAGAGCCUUGGUUUUUUG [U54G C86U G117U],-2.55
17,GACCAAUCUGCCCUCAGAGCUCGAGAACAUCUUCGGAUGCAGAGGAGGCAGGCGUCGGUGGCGCGAUAGCGCCAACGUCCUCAACCUCUAAUGCAUCCCACCACAUGAUGAUGCCUGAAGAGCCUUGGUUUUUUG [U54G C89U],-0.559
18,GACCAAUCUGCCCUCAGAGCUCGAGAACAUCUUCGGAUGCAGAGGAGGCAGGCGUCGGUGGCGCGAUAGCGCCAACGUCCUCAACCUACAAUGCAUCCCACCACUUGAUGAUGCCUGAAGAGCCUUGGUUUUUUG [U54G C88A A105U],-2.56
19,GACCAAUCUGCCCUCAGAGCUCGAGAACAUCUUCGGAUGCAGAGGAGGCAGGCGUGGGUGGCGCGAUAGCGACAACGUCCUCAACCUCCAAUACAUCCCACCACAUGAUGAUGCCUGAAGAGCAAUGGUUUUUUG [U54G C56G C72A G93A C124A U125A],-2.75
20,GACCAAUCUGCCCUCAGAGCUCGAGAACAUCUUCGGAUGCAGAGGAGGCAGGCGUAGGUGGCGCGAUAGCGCCAACGUCCUCAACCUCCAAUGCAUCCCACCACAUGAUGAUGCCUGAAGAGCCUUGGUUUCUUG [U54G C56A U132C],-1.66
21,GACCAAUCUGCCCUCAGAGCUCGAGAACAUCUUCGGAUGCAGAGGAGGCAGGCGUCGGUGGCGCGAUAGCGCCAACGUCCUCAACCUCCAAUGCAUCCCACCACAUGAUGAUGCCUGAAGAGCCAAGGUUUUUUG [U54G U125A U126A],-2

row,Variant,polymerase ribozyme fitness (log ratio)
1,GACCAAUCUGCCCUCAGAGCUCGAGAACAUCUUCGGAUGCAGAGGAGGCAGGCGUCGGUGGCGCGAUAUCGCCAACGUCCUCAACCUCCAAUGCAUCCCACCACAUGAUGAUGCCUUAAGAGCCUUGGUUUUUUG [U54G G69U G117U],-3.75
2,GACCAAUCUGCCCUCAGAGCUCGAGAACAUCUUCGGAUGCAGAGGAGGCAGGCUACGGUGCCGCGAUAGCGCCAACGUCCUCAACCUCCAAUGCAACCCACCACAUGAUGAUGCCUGAACAGCCUUGGUUUUUUG [U55A G61C U96A G120C],-1.22
3,GACCAAUCUGCCCUCAGAGCUCGAGAACAUCUUCGGAUGCAGAGGAGGCAGGCGUCGGUGGCGCGAUAGCGCCAACGUCCUCAACCUCAAAUGCAUCCCACCACAUGAUGAUGCCUGAAGAGCCUUGGUUGUUUG [U54G C89A U131G],-2.74
4,GACCAAUCUGCCCUCAGAGCUCGAGAACAUCUUCGGAUGCAGAGGAGGCAGGCGUCGGUGGCGCGAUAGCGACAACGUCCUCAACCUCCAAUGCAUCCCACCACAUGAUGAUGCCUGAAGAGCCUUGGUUUUUUG [U54G C72A],-1.41
5,GACCAAUCUGCCCUCAGAGCUCGAGAACAUCUUCGGAUGCAGAGGAGGCAGGCUACGGUGGCGCGAUAGCACCAACGUCCUAAACCUCCAAUGCAUCCCACCACAUGAUGAUGCAUGAAGAGCCUUGGUUUUUUG [U55A G71A C82A C115A],-0.992
6,GACCAAUCUGCCCUCAGAGCUCGAGAACAUCUUCGGAUGCAGAGGAGGCAGGCUCUGGUGGCGCGAUAGCGCCAACGUCCUCAACCUCCAAUGCAUCCCACCACAUGAUGAUGCCUGAAGAGCCAUGGUUUUUUG [U55C C56U U125A],-0.641
7,GACCAAUCUGCCCUCAGAGCUCGAGAACAUCUUCGGAUGCAGAGGAGGCAGGCUACAGUGGCGCGAUAGCGCCAACGUCCUCAACCUCCAAUGCAUCCCACCACAUGAUGAGGCCUGAAGAGCCUUGGUUUUUUG [U55A G57A U112G],-0.322
8,GACCAAUCUGCCCUCAGAGCUCGAGAACAUCUUCGGAUGCAGAGGAGGCAGGCUACGGUGGAGCGAUAGCGCCAACGCACUCAACCUCCAAUGCAUCCCACCACAUGAUGAUGCCUGAAGAGCCGUGGUUUUGUG [U55A C62A U78C C79A U125G U133G],-3.28
9,GACCAAUCUGCCCUCAGAGCUCGAGAACAUCUUCGGAUGCAGAGGAGGCAGGCUACGGUGGCGCGAUACCGCCAACGUCCUCAACCUCCAAUGCAUCCCACCAUAUGAUGAUGCAUGAAGAGCCUUGGUUUUUUG [U55A G69C C104U C115A],-0.166
10,GACCAAUCUGCCCUCAGAGCUCGAGAACAUCUUCGGAUGCAGAGGAGGCAGGCGUCGGUGGCGCGAUAGCGCCAACGUCCUCAACCUCCAAUGCAUCCCACCACAUGAUGAUGCCUGAAGAGGCUUGGUUUUUUG [U54G C123G],0.306
11,GACCAAUCUGCCCUCAGAGCUCGAGAACAUCUUCGGAUGCAGAGGAGGCAGGCUACGGUGGCGCGAUAGCGCCAACGUCCACAACCUCCAAUGCAUCCCACCACAUUAUGUUGCCUGAAGAGCCUUGGUUUUUUG [U55A U81A G107U A111U],-4.76
12,GACCAAUCUGCCCUCAGAGCUCGAGAACAUCUUCGGAUGCAGAGGAGGCAGGCGUCGGUGGCGCGAUAGCGCCAACGUCCUCAACCUCCAAUGAAUCCCACCACAUGAUGAUGACUGAAGAGCCUUGGUUUUUUG [U54G C94A C114A],-3.33
13,GACCAAUCUGCCCUCAGAGCUCGAGAACAUCUUCGGAUGCAGAGGAGGCAGGCUACGGUGGCGCGAUAUCGCCAACGUCCUGAACCUCCAAUGCAUCCCACCACAUGAUGAUGCCUGAAGAGCCUUGGUUUUUUG [U55A G69U C82G],0.171
14,GACCAAUCUGCCCUCAGAGCUCGAGAACAUCUUCGGAUGCAGAGGAGGCAGGCUACGGUGGCGCGAUAGCGCCAACGGCCUAAACCUCCAAUGCAUCCCACCACAUGAUAAUGCCUGAAGAGCCUUGGUUUUUUG [U55A U78G C82A G110A],-2.58
15,GACCAAUCUGCCCUCAGAGCUCGAGAACAUCUUCGGAUGCAGAGGAGGCAGGCGUCUGUGGCGCGAUAGCGCCAACGUCCUCAACCUCCAAUGCAUCCCACCACAUGAUGAUGCCUGAAAAGCCUUGGUUUUUUG [U54G G57U G120A],0.132
16,GACCAAUCUGCCCUCAGAGCUCGAGAACAUCUUCGGAUGCAGAGGAGGCAGGCUACGGUGGCGCGAUAGCGCCAACGUCAUCAACGUCCAAUGCAUCCCACCACAUGAUGAUGCCUGAAGAGCGUUGGUUUUUUG [U55A C80A C86G C124G],-4.35
17,GACCAAUCUGCCCUCAGAGCUCGAGAACAUCUUCGGAUGCAGAGGAGGCAGGCGUCGGUGGCGCGAUAGCGCCAACGUCCUCAACCUCCAAUGCAUCCCACCACAUGAUGAUGCCUAAAGAGCCUUGGUUUUUUG [U54G G117A],-2
18,GACCAAUCUGCCCUCAGAGCUCGAGAACAUCUUCGGAUGCAGAGGAGGCAGGCUAGGGUGGCGCGAUAGCGCCAACGUCCUCAACCUCUAAUGCAUCCCACCACAUGAUGAUGCCUGAAGAGCAUUGGUUUUUUG [U55A C56G C89U C124A],0.651
19,GACCAAUCUGCCCUCAGAGCUCGAGAACAUCUUCGGAUGCAGAGGAGGCAGGCGUCGGUUGCGCGAUAGCGCCAACGUCCUCAACCUCCAAUGCAUCCCACCACAUGAUGAUGCAUGAAGAGCCUUGGUUUUUUG [U54G G60U C115A],-3.58
20,GACCAAUCUGCCCUCAGAGCUCGAGAACAUCUUCGGAUGCAGAGGAGGCAGGCUACGGUGGCGCGAUAGCGCAAACGUCCUCAACCUCCAAUGCAUCCCACCAAAUGAUGAUGCCUGGAGAUCCUUGGUUUUUUG [U55A C73A C104A A118G G122U],-1.07
21,GACCAAUCUGCCCUCAGAGCUCGAGAACAUCUUCGGAUGCAGAGGAGGCAGGCGUGGGUGGCGCGAUAGCGCCAACGUCCUCCACCUCCAAUGCAUCCCACCACAUGAUGAUGCCUGAAGAGCCUUGGUUUUUUG [U54G C56G A83C],-2.03
